Where a chain is given by its changes, count along the chain named. Like-named read-outs stand apart in the source and are kept apart here.
Assays:
Rhesus = molecular target: T1, Rhesus (Macaca mulatta, UniProt A0A5F8A3G1); test: flow cytometry, FITC-hSM-05A on HEK-293 cells transfected with full-length rhesus γc, N=3
T1 construct: full length, on the cell surface; the purified extracellular domain is 1.m23; also called rhesus γc protein, full length, on HEK-293 cells
T1 sequence (receptor chain): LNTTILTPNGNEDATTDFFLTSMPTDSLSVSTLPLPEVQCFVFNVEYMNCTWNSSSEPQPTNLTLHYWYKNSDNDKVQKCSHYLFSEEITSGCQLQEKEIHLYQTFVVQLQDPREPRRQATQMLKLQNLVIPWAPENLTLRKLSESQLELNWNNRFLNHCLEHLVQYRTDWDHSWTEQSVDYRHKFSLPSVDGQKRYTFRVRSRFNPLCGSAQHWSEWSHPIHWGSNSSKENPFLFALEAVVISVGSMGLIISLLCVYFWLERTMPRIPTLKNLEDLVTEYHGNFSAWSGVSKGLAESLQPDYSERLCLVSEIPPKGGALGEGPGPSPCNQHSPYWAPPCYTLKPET
Protocol: In brief, hSM-05A was fluorescently labelled with FITC. HEK-293 cells were transfected with the plasmids expressing the full-length γc proteins from different species for 2 days before the incubation with the fluorescent antibodies for flow cytometry analyses. […] All antibodies were administrated at 33 nM (5 μg/ml). C=non-transfected control; Hu: Humans; Rh: Rhesus monkey; Cy: Cynomolgus; Ma: Common marmoset. N=3 for all groups.
The binding specificities of humanized anti-γc antibodies to native γc proteins were further evaluated by […] binding assay. In brief, human HEK-293 cells were transfected with plasmid expressing full length γc protein from human, rhesus, cynomolgus or common marmoset. Two days later, transfected cells or non-transfected controls were incubated with FITC-conjugated hSM-05A on ice for an hour before analysis by flow cytometry.

[1] = molecular target: T2, human γc protein (extracellular domain), purified (human (Homo sapiens), UniProt P31785 23-262); test: ELISA, strip coated with 1 µg/ml human γc, antibody in 5-fold dilutions from 10 to 0.00064 µg/ml, OD 450 nm
T2 construct: Either purchased from Sino Biological or in-house generated; also called human common gamma chain; CD132; not shown: which was used i
T2 sequence: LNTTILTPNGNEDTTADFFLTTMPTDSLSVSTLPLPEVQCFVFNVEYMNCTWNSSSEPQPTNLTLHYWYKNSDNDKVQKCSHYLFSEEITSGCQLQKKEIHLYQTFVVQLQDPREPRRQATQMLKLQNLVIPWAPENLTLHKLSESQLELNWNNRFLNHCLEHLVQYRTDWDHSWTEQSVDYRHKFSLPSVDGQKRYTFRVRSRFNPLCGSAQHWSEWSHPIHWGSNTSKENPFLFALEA
Protocol: (§1) The ELISA strip was coated with 1 μg/ml γc protein from each species. Antibody was diluted 5-fold each from 10 μg/ml to 0.00064 μg/ml.

[2] = molecular target: T3, rabbit γc protein (extracellular domain), purified (rabbit (Oryctolagus cuniculus)); test: ELISA, strip coated with 1 µg/ml rabbit γc, antibody in 5-fold dilutions from 10 to 0.00064 µg/ml, OD 450 nm
T3 construct: also called rabbit (Oryctolagus cuniculus) γc
T3 chain: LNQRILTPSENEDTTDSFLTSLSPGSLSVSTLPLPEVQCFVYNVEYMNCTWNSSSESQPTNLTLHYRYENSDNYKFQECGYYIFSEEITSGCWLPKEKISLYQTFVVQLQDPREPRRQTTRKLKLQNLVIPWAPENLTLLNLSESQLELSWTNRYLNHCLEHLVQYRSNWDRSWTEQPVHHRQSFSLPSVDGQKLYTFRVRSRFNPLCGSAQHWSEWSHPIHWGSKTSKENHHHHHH
Protocol: as §1
(§2) Humanized antibodies with back-mutation (hSM-05A and hSM-05E) were tested in the following assays. Binding affinities were investigated in the ELISA assays.

[3] = molecular target: T4, rhesus γc protein (extracellular domain), purified (rhesus (Macaca mulatta), UniProt P31785 23-254 (human entry)); test: ELISA, strip coated with 1 µg/ml rhesus γc, antibody in 5-fold dilutions from 10 to 0.00064 µg/ml, OD 450 nm
T4 construct: also called rhesus (Macaca mulatta) γc
T4 chain: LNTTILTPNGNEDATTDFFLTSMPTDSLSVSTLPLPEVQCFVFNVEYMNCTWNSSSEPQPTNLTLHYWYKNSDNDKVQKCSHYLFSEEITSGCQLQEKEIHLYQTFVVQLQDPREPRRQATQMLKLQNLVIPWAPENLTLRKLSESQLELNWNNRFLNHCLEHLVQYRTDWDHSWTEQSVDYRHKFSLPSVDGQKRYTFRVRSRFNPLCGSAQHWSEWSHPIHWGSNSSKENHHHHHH
Protocol: as §1

[4] = molecular target: T5, chimpanzee γc protein (extracellular domain), purified (chimpanzee (Pan troglodytes), UniProt P31785 23-262); test: ELISA, strip coated with 1 µg/ml chimpanzee γc, antibody in 5-fold dilutions from 10 to 0.00064 µg/ml, OD 450 nm
T5 construct: also called chimpanzee (Pan troglodytes) γc
T5 sequence: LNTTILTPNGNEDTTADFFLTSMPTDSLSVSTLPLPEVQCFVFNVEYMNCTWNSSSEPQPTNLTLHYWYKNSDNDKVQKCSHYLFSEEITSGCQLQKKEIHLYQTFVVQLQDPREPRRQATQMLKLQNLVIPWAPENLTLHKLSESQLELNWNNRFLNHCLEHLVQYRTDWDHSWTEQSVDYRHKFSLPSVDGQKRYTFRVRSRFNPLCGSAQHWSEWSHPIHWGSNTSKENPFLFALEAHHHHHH
Protocol: as §1

[5] = molecular target: T6, common marmoset γc protein (extracellular domain), purified (common marmoset (Callithrix jacchus), UniProt P31785 26-262 (human entry)); test: ELISA, strip coated with 1 µg/ml common marmoset γc, antibody in 5-fold dilutions from 10 to 0.00064 µg/ml, OD 450 nm
T6 construct: also called common marmoset (Callithrix jacchus) γc
T6 chain: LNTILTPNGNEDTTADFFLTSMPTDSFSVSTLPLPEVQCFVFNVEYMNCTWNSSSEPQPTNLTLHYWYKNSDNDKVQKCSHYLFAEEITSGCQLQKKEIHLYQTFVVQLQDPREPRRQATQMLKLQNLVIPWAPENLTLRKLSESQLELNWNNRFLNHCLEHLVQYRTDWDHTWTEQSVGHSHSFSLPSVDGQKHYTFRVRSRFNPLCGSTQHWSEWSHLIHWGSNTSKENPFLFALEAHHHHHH
Protocol: as §1, §2

[6] = molecular target: T7, cynomolgus γc protein (extracellular domain), purified (cynomolgus (Macaca fascicularis), UniProt P31785 23-254 (human entry)); test: ELISA, strip coated with 1 µg/ml cynomolgus γc, antibody in 5-fold dilutions from 10 to 0.00064 µg/ml, OD 450 nm; curve near baseline up to about 0.08 µg/ml, rises to about 1.35 at 10 µg/ml, no upper plateau
T7 construct: Purchased from Sino Biological or in-house; also called cynomolgus (Macaca fascicularis) γc
T7 chain: T4 chain with E97K
Protocol: as §1

[7] = molecular target: T2, human γc protein (extracellular …); test: ELISA, strip coated with 1 µg/ml human γc, antibody in 5-fold dilutions from 10 to 0.00064 µg/ml, OD 450 nm; remark: listed apart in the source
Protocol: as §1, §2

[8] = molecular target: T3, rabbit γc protein (extracellular …); test: ELISA, strip coated with 1 µg/ml rabbit γc, antibody in 5-fold dilutions from 10 to 0.00064 µg/ml, OD 450 nm
Protocol: as §1

[9] = molecular target: T7, cynomolgus γc protein (extracellular …); test: ELISA, strip coated with 1 µg/ml cynomolgus γc, antibody in 5-fold dilutions from 10 to 0.00064 µg/ml, OD 450 nm; curve rises to about 1.6 at 10 µg/ml, no upper plateau
Protocol: as §1, §2

[10] = molecular target: T4, rhesus γc protein (extracellular …); test: ELISA, strip coated with 1 µg/ml rhesus γc, antibody in 5-fold dilutions from 10 to 0.00064 µg/ml, OD 450 nm; curve near baseline up to about 0.4 µg/ml, rises to about 0.8 at 10 µg/ml, no upper plateau
Protocol: as §1, §2

B1: hSM-05A, humanized anti-γc antibody with back-mutation (antibody, V domains shown)
VH: QVQLVQSGAEVLKPGASVKVSCKASGYTFTEYTMHWVKQARGQRLEWIGGIDPYNGGATYNQRFKGKATLTTDTSTSTAYMELRNLRSDDTAVYYCARRRLYYGNALDYWGQGTLVTVSS
VL: DIVMTQSPLSLPVTPGEQASISCRSSQSLVHSNGNTYLHWYLQKPGQSPQLLIYKVSSRFSGVPDRFSGSGSGTDFTLKISRVEAEDVGVYFCSQTTHVPFTFGSGTKLEIKR
notes: Full-length humanized antibody; also called humanized (h) SM-05A; hbSM-05A
Rhesus
  binding result: no binding (tested: 5 µg/ml (33 nM))
[1]
  EC50: 0.02 µg/mL
[2]
  binding result: no binding (tested: 10 µg/ml)
[3]
  binding result: no binding (tested: 10 µg/ml)
[4]
  EC50: 0.06 µg/mL
[5]
  EC50: 0.04 µg/mL
[6]
  EC50: 9.56 µg/mL

B2: hSM-05E, humanized anti-γc antibody with back-mutation (antibody, V domains shown)
VH: B1 VH with Y54N, N55T, A58V, R63K, L101R, N105Y
VL: B1 VL with L29I, H39E, S58N, T96S, T102M
notes: Full-length humanized antibody; also called humanized SM-05E; hbSM-05E
[7]
  EC50: 0.02 µg/mL
[8]
  binding result: no binding (tested: 10 µg/ml)
[4]
  EC50: 0.17 µg/mL
[5]
  EC50: 0.17 µg/mL
[9]
  EC50: 5.78 µg/mL
[10]
  EC50: 6.3 µg/mL

From patent US20260209365A1, “ANTI-COMMON GAMMA CHAIN PROTEINS AND COMPOSITIONS OF MATTER” (SINOMAB BIOSCIENCE LIMITED, priority 2023, published 2026)
